Source: patent US20230183713A1, “SITE-SPECIFIC RECOMBINASES FOR EFFICIENT AND SPECIFIC GENOME EDITING” (TECHNISCHE UNIVERSITÄt DRESDEN, published 2023)
Positions count from the first letter of the chain named. Names may count otherwise.

T1: Cre recombinase monomer with E176H mutation
T1 chain: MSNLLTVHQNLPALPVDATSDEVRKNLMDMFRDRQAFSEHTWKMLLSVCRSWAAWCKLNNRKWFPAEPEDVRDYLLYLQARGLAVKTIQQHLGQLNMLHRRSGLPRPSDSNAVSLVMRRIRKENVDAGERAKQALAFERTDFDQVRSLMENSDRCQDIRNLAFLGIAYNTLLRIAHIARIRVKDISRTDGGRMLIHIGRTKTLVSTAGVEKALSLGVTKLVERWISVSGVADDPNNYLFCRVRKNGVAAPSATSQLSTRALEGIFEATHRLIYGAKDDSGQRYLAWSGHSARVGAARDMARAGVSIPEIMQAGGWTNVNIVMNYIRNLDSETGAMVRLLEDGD

T2: Cre recombinase monomer with E176V mutation
T2 chain: T1 chain with H176V

T3: Cre recombinase monomer with K201R mutation
T3 chain: T1 chain with H176E, K201R

T4: Cre recombinase monomer with Q311R mutation
T4 chain: T1 chain with H176E, Q311R

T5: Cre recombinase monomer with W315I mutation
T5 chain: T1 chain with H176E, W315I

T6: Cre recombinase monomer with W315M mutation
T6 chain: T1 chain with H176E, W315M

T7: Cre recombinase monomer with Y324F mutation
T7 chain: T1 chain with H176E, Y324F

T8: Cre recombinase monomer with Y324T mutation
T8 chain: T1 chain with H176E, Y324T

B1: Cre recombinase monomer with R173E mutation (protein)
chain: T1 chain with R173E, H176E
B2: Cre recombinase monomer with R173D mutation (protein)
chain: T1 chain with R173D, H176E
B3: Cre recombinase monomer with R173Y mutation (protein)
chain: T1 chain with R173Y, H176E
B4: Cre recombinase monomer with R173V mutation (protein)
chain: T1 chain with R173V, H176E
B5: Cre recombinase monomer with E176Y mutation (protein)
chain: T1 chain with H176Y
B6: Cre recombinase monomer with K201A mutation (protein)
chain: T1 chain with H176E, K201A
B7: Cre recombinase monomer with E176M mutation (protein)
chain: T1 chain with H176M
B8: Cre recombinase monomer with K201M mutation (protein)
chain: T1 chain with H176E, K201M
B9: Cre recombinase monomer with K201L mutation (protein)
chain: T1 chain with H176E, K201L
B10: Cre recombinase monomer with R292S mutation (protein)
chain: T1 chain with H176E, R292S
B11: Cre recombinase monomer with R292Q mutation (protein)
chain: T1 chain with H176E, R292Q
B12: Cre recombinase monomer with R173K mutation (protein)
chain: T1 chain with R173K, H176E
B13: Cre recombinase monomer with R292N mutation (protein)
chain: T1 chain with H176E, R292N
B14: Cre recombinase monomer with K201W mutation (protein)
chain: T1 chain with H176E, K201W
B15: Cre recombinase monomer with R292V mutation (protein)
chain: T1 chain with H176E, R292V
B16: Cre recombinase monomer with R292M mutation (protein)
chain: T1 chain with H176E, R292M
B17: Cre recombinase monomer with R173A mutation (protein)
chain: T1 chain with R173A, H176E
B18: Cre recombinase monomer with H289K mutation (protein)
chain: T1 chain with H176E, H289K
B19: Cre recombinase monomer with R292P mutation (protein)
chain: T1 chain with H176E, R292P
B20: Cre recombinase monomer with R292L mutation (protein)
chain: T1 chain with H176E, R292L
B21: Cre recombinase monomer with E176L mutation (protein)
chain: T1 chain with H176L
B22: Cre recombinase monomer with R173P mutation (protein)
chain: T1 chain with R173P, H176E
B23: Cre recombinase monomer with K201V mutation (protein)
chain: T1 chain with H176E, K201V
B24: Cre recombinase monomer with R292W mutation (protein)
chain: T1 chain with H176E, R292W

Molecular target: T1, Cre recombinase monomer with E176H …

Protein	Median dimer activity (recombination on loxP)
B1	32%
B2	29%

Molecular target: T2, Cre recombinase monomer with E176V …

Protein	Median dimer activity (recombination on loxP)
B3	35%
B4	53%
B2	53%

Molecular target: T3, Cre recombinase monomer with K201R …

Protein	Median dimer activity (recombination on loxP)
B5	39%
B6	64%
B7	35%
B8	76%

Molecular target: T4, Cre recombinase monomer with Q311R …

Protein	Median dimer activity (recombination on loxP)
B5	79%
B9	92%
B1	80%
B10	97%
B3	92%
B11	70%
B6	95%
B4	92%
B12	84%
B2	89%
B13	95%
B7	82%
B14	95%
B8	93%
B15	95%
B16	96%
B17	93%
B18	95%
B19	76%
B20	93%
B21	40%
B22	94%
B23	84%
B24	88%

Molecular target: T5, Cre recombinase monomer with W315I …

Protein	Median dimer activity (recombination on loxP)
B16	42%

Molecular target: T6, Cre recombinase monomer with W315M …

Protein	Median dimer activity (recombination on loxP)
B14	49%
B18	74%
B23	64%

Molecular target: T7, Cre recombinase monomer with Y324F …

Protein	Median dimer activity (recombination on loxP)
B23	48%

Molecular target: T8, Cre recombinase monomer with Y324T …

Protein	Median dimer activity (recombination on loxP)
B9	25%
B14	68%
B22	47%
